Experimental data published in patent US20240067747A1 (SHANGHAI HUAOTA BIOPHARMACEUTICAL, published 2024).
Positions count from the first letter of the chain named.

T1: CD73 on the cell surface of Calu6 cells (UniProt P21589 27-549, limits assumed)
T1 sequence (looked up): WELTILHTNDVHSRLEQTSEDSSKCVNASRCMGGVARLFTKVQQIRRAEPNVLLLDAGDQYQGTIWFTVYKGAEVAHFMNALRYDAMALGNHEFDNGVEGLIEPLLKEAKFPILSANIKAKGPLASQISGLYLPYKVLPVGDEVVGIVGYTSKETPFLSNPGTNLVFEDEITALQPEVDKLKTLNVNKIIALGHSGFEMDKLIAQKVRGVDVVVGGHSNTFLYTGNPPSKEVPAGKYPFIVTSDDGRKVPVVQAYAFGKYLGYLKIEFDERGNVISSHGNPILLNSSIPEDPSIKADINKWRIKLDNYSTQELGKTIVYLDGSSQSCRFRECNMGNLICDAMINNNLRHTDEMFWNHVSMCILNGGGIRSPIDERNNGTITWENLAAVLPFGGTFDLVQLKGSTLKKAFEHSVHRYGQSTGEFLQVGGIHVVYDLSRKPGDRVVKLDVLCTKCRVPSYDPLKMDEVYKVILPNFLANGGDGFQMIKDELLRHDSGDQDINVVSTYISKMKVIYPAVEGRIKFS

T2: Trypsin inhibitor type 1-S from Glycine max (Sigma, T-2327) (Glycine max, UniProt P01070 25-205)
T2 construct: Non-target molecule, amine-coupled to a CM5 chip
T2 sequence (looked up): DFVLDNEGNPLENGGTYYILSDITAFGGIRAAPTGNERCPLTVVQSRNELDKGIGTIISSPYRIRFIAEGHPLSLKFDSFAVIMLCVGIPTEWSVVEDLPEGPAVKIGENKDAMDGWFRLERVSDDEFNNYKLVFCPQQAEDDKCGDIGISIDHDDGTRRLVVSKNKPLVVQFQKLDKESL

T3: Cynomolgus CD73 protein (Novoprotein, item No. CI21) (cynomolgus, UniProt A0A2K5V5U7 27-547)
T3 construct: Bought protein
T3 sequence: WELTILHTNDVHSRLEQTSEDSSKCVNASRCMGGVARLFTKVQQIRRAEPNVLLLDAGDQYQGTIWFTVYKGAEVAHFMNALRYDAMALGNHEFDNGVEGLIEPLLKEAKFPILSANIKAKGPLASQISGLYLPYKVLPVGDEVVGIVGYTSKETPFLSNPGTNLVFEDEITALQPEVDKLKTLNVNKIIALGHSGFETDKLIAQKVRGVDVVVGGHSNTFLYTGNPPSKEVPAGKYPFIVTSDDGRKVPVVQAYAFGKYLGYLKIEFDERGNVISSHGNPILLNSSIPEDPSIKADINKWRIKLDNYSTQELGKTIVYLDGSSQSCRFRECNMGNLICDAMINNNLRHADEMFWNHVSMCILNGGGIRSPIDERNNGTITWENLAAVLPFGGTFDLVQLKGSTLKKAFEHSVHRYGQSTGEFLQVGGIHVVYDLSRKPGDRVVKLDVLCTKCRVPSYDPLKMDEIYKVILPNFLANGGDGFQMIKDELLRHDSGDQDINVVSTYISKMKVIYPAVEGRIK

B1: 900725 (humanized anti-CD73 antigen-binding protein) (antibody, V domains shown)
VH: QVQLVQSGAEVKKPGASVKLSCKASGYTFTSYWIHWVRQAPGQGLEWIGMIHPNSGSTYYNEKFKGRATLTVDKSTSTAYMELSSLRSEDTAVYYCARYYGSDYEWYFDVWGQGTTVTVSS
VL: DIQMTQSPSSMSASVGDRVTITCKASQNVRTAVVWYQQKPGKAPKALIYLASNRHTGVPDRFSGSGSGTDFTLTISSLQPEDFATYFCLQHWNYPYTFGQGTKLEIK
B2: 900728 (humanized anti-CD73 antigen-binding protein) (antibody, V domains shown)
VH: B1 VH with L20V, K65Q, A68V, L70M
VL: B1 VL with M11L, F87Y
B3: 900567 (human-mouse chimeric anti-CD73 antigen-binding protein expressed from 124A9 variable regions) (antibody, V domains shown)
VH: QVQLQQPGAELVKPGASVKLSCKASGYTFTSYWIHWVKQRPGQGLDWIGMIHPNSGSTYYNEKFKSKATLTVDKSSSTAYMQLSSLTSEDSAVYYCARYYGSDYEWYFDVWGTGTTVTVSS
VL: DIVMTQSQKFMSTSVGDRVSITCKASQNVRTAVVWYQQNPGQSPKALIYLASNRHTGVPDRFTGSGSGTDFTLTISNVHSEDLADYFCLQHWNYPYTFGGGTKLEIK
B4: 900726 (humanized anti-CD73 antigen-binding protein) (antibody, V domains shown)
VH: B1 VH
VL: B1 VL with M11L, F87Y
B5: 900727 (humanized anti-CD73 antigen-binding protein) (antibody, V domains shown)
VH: B1 VH with L20V, N61A, E62Q, K65Q, A68V, L70I
VL: B1 VL

biological target: T1, CD73 on the cell surface of Calu6 cells; assay: cell-based or functional assay

| Endocytosis rate (%) | Binder |
| --- | --- |
| 37.5 | B1 |
| 33.9 | B2 |
| 26.9 | B3 |

biological target: T4, Lysozyme from chicken egg (Sigma, L3790) (chicken, UniProt P00698 19-147); assay: SPR, Biacore 8K, lysozyme immobilized on CM5 chip
T4 construct: Non-target molecule, amine-coupled to a CM5 chip
Experimental: (§1) The non-specific adsorption effect of antigen-binding proteins and non-target molecules were determined by using the SPR method.
(§2) The series sensor chip CM5 (GE, #BR-1005-30) was equilibrated at room temperature for 20-30 min and then loaded into the Biacore 8K (GE) instrument. Lysozyme solution (Sigma, #L3790) from egg and trypsin inhibitor type 1-S (Sigma, #T-2327) from Glycine max were immobilized onto the CM5 chip using an amino coupling kit (GE, #BR-1000-50). The injection buffer was HBS-EP (1×) (GE, #BR-1006-69) and four equilibration cycles were set up. The polyclonal rabbit anti-lysozyme (ABcam, Ab391), anti-trypsin inhibitor antibodies (LifeSpan Biosciences, #LS-C76609), chimeric antibodies and humanized antibodies were diluted with equilibration buffer to 1000 nM, and the flow rate was set at 5 μL/min and injection channels 1, 2 and 3, Flow Cell 1 and 2 were selected. The association time was 10 min and the dissociation time was 10 min.

T4 sequence (P00698 19-147 limits assumed): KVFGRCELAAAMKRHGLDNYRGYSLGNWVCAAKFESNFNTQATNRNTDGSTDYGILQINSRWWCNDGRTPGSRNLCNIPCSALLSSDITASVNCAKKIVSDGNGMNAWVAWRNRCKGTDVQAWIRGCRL

| Binder | binding result |
| --- | --- |
| B1 | no binding (tested: 1000 nM antibody; 20 RU) |
| B4 | no binding (tested: 1000 nM antibody; 20 RU) |
| B5 | no binding (tested: 1000 nM antibody; 20 RU) |
| B2 | no binding (tested: 1000 nM antibody; 20 RU) |
| B3 | no binding (tested: 1000 nM antibody; 20 RU) |

biological target: T2, Trypsin inhibitor type 1-S from Glycine …; assay: SPR, Biacore 8K, trypsin inhibitor immobilized on CM5 chip
Experimental: as §1, §2

| Binder | binding result |
| --- | --- |
| B1 | no binding (tested: 1000 nM antibody; 20 RU) |
| B4 | no binding (tested: 1000 nM antibody; 20 RU) |
| B5 | no binding (tested: 1000 nM antibody; 20 RU) |
| B2 | no binding (tested: 1000 nM antibody; 20 RU) |
| B3 | no binding (tested: 1000 nM antibody; 20 RU) |

biological target: T3, Cynomolgus CD73 protein (Novoprotein, …); assay: SPR, Biacore T200, antibody captured on protein A chip, cynomolgus CD73 as analyte, 1:1 model
Experimental: In the tests, the assay buffer HBS-EP+ (pH 7.4) and the protein A chip (manufacturer: GE, item No.: 29-1275-56) were used.
The temperatures of a sample chamber and a flow path were set at 25° C., and the protein A chip respectively captured antigen-binding proteins as ligands and immobilized at about 100 RU. […] After association for 120 s at a flow rate of 30 μL/min, dissociation was carried out for 600 s. Regeneration was then carried out for 60 s with 10 mM Glycine (pH 1.5) at a flow rate of 50 μL/min to implement multi-cycle kinetic detection. A 1:1 binding model was selected for fitting analysis in a Fit local mode to acquire the association rate constant (ka), dissociation rate constant (kd) and dissociation equilibrium rate constant (KD).

| Kd [nM] | koff [s⁻¹] | kon [M⁻¹ s⁻¹] | Binder |
| --- | --- | --- | --- |
| 0.368 | 0.000156 | 425000 | B1 |
| 2 | 0.0032 | 1.6e+06 | B4 |
| 0.798 | 0.00074 | 927000 | B5 |
| 0.561 | 0.000381 | 678000 | B2 |
| 0.709 | 0.000606 | 855000 | B3 |
